Measured values published in article PMC2175199 (The Journal of Cell Biology, 2000).

T1: hSA2 (human (endogenous in HeLa), UniProt Q8N3U4 1-1231)
T1 sequence: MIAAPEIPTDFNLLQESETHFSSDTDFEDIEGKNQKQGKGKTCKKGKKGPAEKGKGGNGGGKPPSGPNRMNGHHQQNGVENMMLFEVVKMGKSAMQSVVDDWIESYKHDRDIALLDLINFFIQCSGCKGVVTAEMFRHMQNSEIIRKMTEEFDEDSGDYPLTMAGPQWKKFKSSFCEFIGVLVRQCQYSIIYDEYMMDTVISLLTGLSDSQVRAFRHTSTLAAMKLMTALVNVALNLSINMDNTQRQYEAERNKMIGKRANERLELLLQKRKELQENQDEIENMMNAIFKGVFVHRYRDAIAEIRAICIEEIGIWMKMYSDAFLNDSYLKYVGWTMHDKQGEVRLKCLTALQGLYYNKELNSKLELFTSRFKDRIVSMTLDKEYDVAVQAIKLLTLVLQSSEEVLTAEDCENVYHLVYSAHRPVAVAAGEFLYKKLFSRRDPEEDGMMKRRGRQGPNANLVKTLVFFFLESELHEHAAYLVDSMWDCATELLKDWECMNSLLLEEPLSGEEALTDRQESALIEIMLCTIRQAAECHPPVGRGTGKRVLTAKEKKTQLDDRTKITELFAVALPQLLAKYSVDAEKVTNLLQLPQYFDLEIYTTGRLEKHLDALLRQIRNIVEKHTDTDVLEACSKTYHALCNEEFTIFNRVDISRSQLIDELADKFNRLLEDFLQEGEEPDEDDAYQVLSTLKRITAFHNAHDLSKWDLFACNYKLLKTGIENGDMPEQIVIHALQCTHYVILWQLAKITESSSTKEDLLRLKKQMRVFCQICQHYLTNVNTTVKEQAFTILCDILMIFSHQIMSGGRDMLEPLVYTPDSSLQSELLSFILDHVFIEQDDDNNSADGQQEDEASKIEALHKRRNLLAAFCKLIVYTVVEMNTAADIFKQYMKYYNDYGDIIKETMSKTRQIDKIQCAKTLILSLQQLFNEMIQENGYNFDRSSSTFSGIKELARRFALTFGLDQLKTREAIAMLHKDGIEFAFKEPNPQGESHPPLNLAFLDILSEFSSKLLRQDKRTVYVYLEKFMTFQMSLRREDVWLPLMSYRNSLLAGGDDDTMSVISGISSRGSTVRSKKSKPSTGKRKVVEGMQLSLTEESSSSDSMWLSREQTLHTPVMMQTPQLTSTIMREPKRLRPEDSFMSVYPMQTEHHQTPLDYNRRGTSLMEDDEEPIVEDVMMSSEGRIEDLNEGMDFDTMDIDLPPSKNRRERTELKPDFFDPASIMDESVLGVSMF

T2: hSA1 (human (endogenous in HeLa), UniProt Q8WVM7 1-1258)
T2 sequence: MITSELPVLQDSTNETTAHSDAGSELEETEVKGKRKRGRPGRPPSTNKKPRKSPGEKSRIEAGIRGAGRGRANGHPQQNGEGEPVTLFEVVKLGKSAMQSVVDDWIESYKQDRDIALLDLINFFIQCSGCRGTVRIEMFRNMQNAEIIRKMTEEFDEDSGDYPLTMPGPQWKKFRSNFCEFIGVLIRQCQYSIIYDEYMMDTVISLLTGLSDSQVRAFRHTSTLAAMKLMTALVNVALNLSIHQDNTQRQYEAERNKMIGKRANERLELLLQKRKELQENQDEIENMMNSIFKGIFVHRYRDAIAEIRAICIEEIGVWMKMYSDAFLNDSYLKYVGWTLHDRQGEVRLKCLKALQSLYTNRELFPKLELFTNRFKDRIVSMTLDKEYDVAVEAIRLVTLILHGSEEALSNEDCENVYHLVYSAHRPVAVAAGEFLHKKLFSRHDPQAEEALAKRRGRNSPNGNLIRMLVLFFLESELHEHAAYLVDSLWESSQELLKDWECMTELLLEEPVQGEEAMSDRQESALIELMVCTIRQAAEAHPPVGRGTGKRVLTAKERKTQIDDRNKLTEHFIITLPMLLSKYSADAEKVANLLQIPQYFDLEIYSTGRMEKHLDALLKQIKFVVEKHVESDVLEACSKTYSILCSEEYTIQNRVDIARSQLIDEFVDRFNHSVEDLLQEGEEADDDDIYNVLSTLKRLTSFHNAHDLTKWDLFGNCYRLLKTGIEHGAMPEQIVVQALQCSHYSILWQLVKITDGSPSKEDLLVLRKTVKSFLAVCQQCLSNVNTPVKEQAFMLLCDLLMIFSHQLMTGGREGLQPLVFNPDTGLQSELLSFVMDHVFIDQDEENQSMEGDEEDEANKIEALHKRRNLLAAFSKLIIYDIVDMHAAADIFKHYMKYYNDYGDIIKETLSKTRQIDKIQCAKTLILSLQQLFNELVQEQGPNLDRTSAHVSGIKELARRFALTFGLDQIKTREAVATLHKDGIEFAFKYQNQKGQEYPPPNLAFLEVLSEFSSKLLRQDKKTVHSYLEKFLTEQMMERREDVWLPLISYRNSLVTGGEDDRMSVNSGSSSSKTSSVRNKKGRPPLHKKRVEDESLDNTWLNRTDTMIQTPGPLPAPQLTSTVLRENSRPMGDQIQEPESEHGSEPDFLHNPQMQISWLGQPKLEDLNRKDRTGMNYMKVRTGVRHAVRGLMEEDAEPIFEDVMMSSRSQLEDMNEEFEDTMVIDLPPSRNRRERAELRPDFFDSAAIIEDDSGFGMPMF


Columns and labels:
hSA2 = biological target: T1, hSA2; assay: co-IP
hSA1 = biological target: T2, hSA1; assay: co-IP

Row | Binder | percent removed from the extract by anti-XSA2 (hSA2) [%] | percent removed from the extract by anti-XSA1 (hSA1) [%]
1 | hSMC3 (natural protein) MYIKQVIIQGFRSYRDQTIVDPFSSKHNVIVGRNGSGKSNFFYAIQFVLSDEFSHLRPEQRLALLHEGTGPRVISAFVEIIFDNSDNRLPIDKEEVSLRRVIGAKKDQYFLDKKMVTKNDVMNLLESAGFSRSNPYYIVKQGKINQMATAPDSQRLKLLREVAGTRVYDERKEESISLMKETEGKREKINELLKYIEERLHTLEEEKEELAQYQKWDKMRRALEYTIYNQELNETRAKLDELSAKRETSGEKSRQLRDAQQDARDKMEDIERQVRELKTKISAMKEEKEQLSAERQEQIKQRTKLELKAKDLQDELAGNSEQRKRLLKERQKLLEKIEEKQKELAETEPKFNSVKEKEERGIARLAQATQERTDLYAKQGRGSQFTSKEERDKWIKKELKSLDQAINDKKRQIAAIHKDLEDTEANKEKNLEQYNKLDQDLNEVKARVEELDRKYYEVKNKKDELQSERNYLWREENAEQQALAAKREDLEKKQQLLRAATGKAILNGIDSINKVLDHFRRKGINQHVQNGYHGIVMNNFECEPAFYTCVEVTAGNRLFYHIVDSDEVSTKILMEFNKMNLPGEVTFLPLNKLDVRDTAYPETNDAIPMISKLRYNPRFDKAFKHVFGKTLICRSMEVSTQLARAFTMDCITLEGDQVSHRGALTGGYYDTRKSRLELQKDVRKAEEELGELEAKLNENLRRNIERINNEIDQLMNQMQQIETQQRKFKASRDSILSEMKMLKEKRQQSEKTFMPKQRSLQSLEASLHAMESTRESLKAELGTDLLSQLSLEDQKRVDALNDEIRQLQQENRQLLNERIKLEGIITRVETYLNENLRKRLDQVEQELNELRETEGGTVLTATTSELEAINKRVKDTMARSEDLDNSIDKTEAGIKELQKSMERWKNMEKEHMDAINHDTKELEKMTNRQGMLLKKKEECMKKIRELGSLPQEAFEKYQTLSLKQLFRKLEQCNTELKKYSHVNKKALDQFVNFSEQKEKLIKRQEELDRGYKSIMELMNVLELRKYEAIQLTFKQVSKNFSEVFQKLVPGGKATLVMKKGDVEGSQSQDEGEGSGESERGSGSQSSVPSVDQFTGVGIRVSFTGKQGEMREMQQLSGGQKSLVALALIFAIQKCDPAPFYLFDEIDQALDAQHRKAVSDMIMELAVHAQFITTTFRPELLESADKFYGVKFRNKVSHIDVITAEMAKDFVEDDTTHG | ~75 | ~25
2 | hSMC1 (natural protein) MGFLKLIEIENFKSYKGRQIIGPFQRFTAIIGPNGSGKSNLMDAISFVLGEKTSNLRVKTLRDLIHGAPVGKPAANRAFVSMVYSEEGAEDRTFARVIVGGSSEYKINNKVVQLHEYSEELEKLGILIKARNFLVFQGAVESIAMKNPKERTALFEEISRSGELAQEYDKRKKEMVKAEEDTQFNYHRKKNIAAERKEAKQEKEEADRYQRLKDEVVRAQVQLQLFKLYHNEVEIEKLNKELASKNKEIEKDKKRMDKVEDELKEKKKELGKMMREQQQIEKEIKEKDSELNQKRPQYIKAKENTSHKIKKLEAAKKSLQNAQKHYKKRKGDMDELEKEMLSVEKARQEFEERMEEESQSQGRDLTLEENQVKKYHRLKEEASKRAATLAQELEKFNRDQKADQDRLDLEERKKVETEAKIKQKLREIEENQKRIEKLEEYITTSKQSLEEQKKLEGELTEEVEMAKRRIDEINKELNQVMEQLGDARIDRQESSRQQRKAEIMESIKRLYPGSVYGRLIDLCQPTQKKYQIAVTKVLGKNMDAIIVDSEKTGRDCIQYIKEQRGEPETFLPLDYLEVKPTDEKLRELKGAKLVIDVIRYEPPHIKKALQYACGNALVCDNVEDARRIAFGGHQRHKTVALDGTLFQKSGVISGGASDLKAKARRWDEKAVDKLKEKKERLTEELKEQMKAKRKEAELRQVQSQAHGLQMRLKYSQSDLEQTKTRHLALNLQEKSKLESELANFGPRINDIKRIIQSREREMKDLKEKMNQVEDEVFEEFCREIGVRNIREFEEEKVKRQNEIAKKRLEFENQKTRLGIQLDFEKNQLKEDQDKVHMWEQTVKKDENEIEKLKKEEQRHMKIIDETMAQLQDLKNQHLAKKSEVNDKNHEMEEIRKKLGGANKEMTHLQKEVTAIETKLEQKRSDRHNLLQACKMQDIKLPLSKGTMDDISQEEGSSQGEDSVSGSQRISSIYAREALIEIDYGDLCEDLKDAQAEEEIKQEMNTLQQKLNEQQSVLQRIAAPNMKAMEKLESVRDKFQETSDEFEAARKRAKKAKQAFEQIKKERFDRFNACFESVATNIDEIYKALSRNSSAQAFLGPENPEEPYLDGINYNCVAPGKRFRPMDNLSGGEKTVAALALLFAIHSYKPAPFFVLDEIDAALDNTNIGKVANYIKEQSTCNFQAIVISLKEEFYTKAESLIGVYPEQGDCVISKVLTFDLTKYPDANPNPNEQ | ~75 | ~25
3 | hRAD21 (natural protein) MFYAHFVLSKRGPLAKIWLAAHWDKKLTKAHVFECNLESSVESIISPKVKMALRTSGHLLLGVVRIYHRKAKYLLADCNEAFIKIKMAFRPGVVDLPEENREAAYNAITLPEEFHDFDQPLPDLDDIDVAQQFSLNQSRVEEITMREEVGNISILQENDFGDFGMDDREIMREGSAFEDDDMLVSTTTSNLLLESEQSTSNLNEKINHLEYEDQYKDDNFGEGNDGGILDDKLISNNDGGIFDDPPALSEAGVMLPEQPAHDDMDEDDNVSMGGPDSPDSVDPVEPMPTMTDQTTLVPNEEEAFALEPIDITVKETKAKRKRKLIVDSVKELDSKTIRAQLSDYSDIVTTLDLAPPTKKLMMWKETGGVEKLFSLPAQPLWNNRLLKLFTRCLTPLVPEDLRKRRKGGEADNLDEFLKEFENPEVPREDQQQQHQQRDVIDEPIIEEPSRLQESVMEASRTNIDESAMPPPPPQGVKRKAGQIDPEPVMPPQQVEQMEIPPVELPPEEPPNICQLIPELELLPEKEKEKEKEKEDDEEEEDEDASGGDQDQEERRWNKRTQQMLHGLQRALAKTGAESISLLELCRNTNRKQAAAKFYSFLVLKKQQAIELTQEEPYSDIIATPGPRFHII | ~75 | ~25
